This data set is described as follows: soluble on expression in E. coli; label from the status in PepcDB or PDB records.
“GGDGNITTENIPVSEYDCLELEGGGMVVNYTQSDAPEGLEIKTDRNIFEKYEFNVENHKLKIRPKKEFRKHTNFRPTEFMVTANSRNLKKLAAAGSTHVNINSPLQAEEFEAGLAGSGIIQFHDTASFTNLKIEIAGSGDFVGHKVYCEELNGDMAGSNTIVLGGTVGIAEFSIAGSGTVRAFDCTMDELECKIAGSGDIEAFVVNKIKAEIAGSGSVKYKGDPQDIQKKVMGSGKIEKVE”: the “soluble on expression in E. coli” value was “soluble”. In the case of “GGKFVQAWSQFPAGKWGVEPNPVSVVPTHGEVLNDGKVKEVPWVLELTPMPVSGTTVGKDGINPDEPMTLETVDRFAREIGFKGRYQLNLPKGEDGVWTLSQDSMSYDMISPFADRTVHIDQYSGKILADIRFDDYNPFGKFMAASIALHMGTLG” it was “not soluble”; in that of “GGVDSHSHIAGAKVNTGRTLRPEDSKKDLFSKEGLRQGSGFSIPSTFKTGYQYSGMGYTTVIEAAMPPLVARHTHEEFMDLPQIDKAAMPLFGNSWMVLEYLKNGDLSMCAAYVAWLLKVTKGYAIKIVNPGGTEAWGWGKNVHGLDDEVPYFGITPREIVTGLAKVNEMLGLPHSIHVHPNNLGHPGNWETTIDTMDCVKDIKAKPKFGDRDTVYYNTHLQFHSYGGTSWKDCVSKGVETADYVNKNKHVMIDVGQVTLDETTTMTADGPMEYDLHMTNGLKWANCDVELETGSGVVPFIYSPKGPVYSLQWAIGLDIFLYTQPEKLILTTDHPNAGPFVRYPRVIAWLLSKEYRNDWIQNRVHKWAAEKSHITETDREYSMYEIAQITRANSSKVLGLSGDRGHLGAGAKADISIYDIDPEEKSGKKIEKAFLEAAYVLKDGEIVVKNG”, “not soluble”; in that of “GGWGFLASFAAGIGLRHAEVATLGRASAPAEAQAAAADVREAGQASGAIEYGADRSEHPKVAAGAVMLDVLSFGNLLERSLEVLLVTLLGAMLYQHWDWRA”, “not soluble”. In the case of “GHMGEEQYNRYQQYGAEECVLQMGGVLCPRPGCGAGLLPEPDQRKVTCEGGNGLGCGFAFCRECKEAYHEGECSAVFEAS” it was “soluble”. Under “GHMGQSPDAPIADTPGEQQEINLYSSRHYNTDNELYAKFTAETGIKVNLIEGKADELLERIKSEGANSPADVLLTVDLARLWRAEEDGIFQPVQSEILETNVPEYLRSPDGMWFGFTKRARVIMYNKGKVKPEELSTYEELADPKWKGRVIIRSSSNEYNQSLVASLVVADGEESTLAWAKGFVSNFAREPQGNDTAQIEAVSSGEADLTLANTYYMGRLLESEDPAQKAIAENVGVFFPNQEGRGTHVNVSGVGVVKTAPNREGAVKFIEFLVSEPAQAFLAQNNYEYPVLAGVPLNKSVASFGEFKSDTTSLDKLGPALAPATKIMNEAGWK” stands “soluble”; under “GHMTWEHNEFMQMTVKPFLIPADKVAHVQPGNYLDHALLVLTKTGYSAIPVLDTSYKLHGLISMTMMMDAILGLERIEFERLETMKVEEVMNRNIPRLRLDDSLMKAVGLIVNHPFVCVENDDGYFAGIFTRREVLKQLNKQLHRPNGGRKLGRKEAEQ”, “soluble”; under “GIDAAEYVLYGGKGGVGKTTCAAATALASARDDTATLVVSTDPAHSLSDTLDADIPATPTRIREDIPLYAAEIDPEAAVGEGPLGVEEDALGGVGELLGGDGMFGGGAGGAAGAGQAEDPIGGEEGLLGGSMPGADEAAALRLLLDYVDDDRFDRVVIDTAPTGHTLRLLELPETMDSMVGKILQLRERFSGMMDNLTGMFGDDQDVDAEAGIEDLQELSDRIEHLRGILQDPQRTDFRIVMVPEELSVVESERLLAQLGEFNIPVSTVVVNRVMQDPSEVLGEDVDIAGPNHADCEFCARRWQVQQDALARSQDMFRGHDVRRVPLFAEEVRGERLLSVVAACLD”, “not soluble”.

As for “GIDPFTGIDPFTGTQACITAASAVSGIIADLDTTIMFATAGTLNREGAETFADHREGILKTAKVLVEDTKVLVQNAAGSQEKLAQAAQSSVATITRLADVVKLGAASLGAEDPETQVVLINAVKDVAKALGDLISATKAAAGKVGDDPAVWQLKNSAKVMVTNVTSLLKTVKAVEDEATKGTRALEATTEHIRQELAVFCSPEPPAKTSTPEDFIRMTKGITMATAKAVAAGNSCRQEDVIATANLSRRAIADMLRACKEAAFHPEVAPDVRLRALHYGRECANGYLELLDHVLLTLQKPNPDLKQQLTGHSKRVAGSVTELIQAAEAMKGT”, the “soluble on expression in E. coli” value is given as “soluble”.

“GIDPFTQRLNFGDDIPSALRIAKKKRWNSIEEKRISQENELHAYLSKLILAEKERELDDRVKQSDDSQNGGDISKMKSKHDKYLMDMDELFSQVDEKRKKREIPDYLCGKISFELMREPCITPSGITYDRKDIEEHLQRVGHFDPVTRSPLTQDQLIPNLAMKEVIDAFIQENGWVEDY”: the “soluble on expression in E. coli” value is “soluble”. Under “GINAGKMAMIVTDKGEQVTKAINACCNRGSTILKGMGGYKMDKKEVVICACNNKEMFFVQQVVKEVDPAAFTVVLESNEVHGEGFKMFQIGEGNVTVQTGLRSCCADRAKMQRQ” stands “not soluble”; under “GISYSVEADPDTTAKAMLRERQMSFKHSKAIAREIKGKTAGEAVDYLEAVIEGDQPVPFKQHNSGVGHKSKVDGWDAGRYPEKASKAFLDLLENAVGNADHQGFDGEAMTIKHVAAHKVGEQQGRKPRAMGRASAWNSPQVDVELILEEPEVED”, “soluble”; under “GKSDKIIPIAENKEAKAKYDILETYEAGIVLKGSEVKSLREKGTVSFKDSFVRIENGEAWLYNLYIAPYKHATIENHDPLRKRKLLLHKREIMRLYGKVQEKGYTIIPLKLYWKNNKVKVLIALAKGKKLYDRRRELKEKAMKRELEREFKGKIHL”, “soluble”.

On to “GKTFPSRAYIDGTLSARVIAHEFGHNLGLSHAKALDCGDASVSNNCSVIEYGDSYDVMGTPDMGYINTYYKERMGWLNDAESPNILTATQDGLYEIAEYETQDITQNIALKIPRGVNPNSGLKEWFYVEYRQAMGYDQFLDDRSYMLFRGDVTDGVIVRLVEEGAEESYILHMKPNSDYSQVYGRKDWKDTALPVGDSFTDP”, for which the “soluble on expression in E. coli” value is on record as “not soluble”. Under “GKVGDRPIEQQLALGYIKALTEHDYQTLSKYYNRDSVFYDKTADTKYIGTRSIIAFLQRSHEGVLEFDFNIEHMFNTGPLVVMIGNYHLRGPGEQFGKPGKIIDIAIPGVTTLKFDPNTQRLTEQVDLMDYQTMSDQLQSQ” stands “soluble”; under “GLEYRFSKSKQALELTSLRLKEKSEQLEHSQRVAIVGEIGSSLAHELNQPLAAIRNYSEGGLLRLAKKRPHEDIVPVLEKIQGQVERADAIIQRLRTLIRKRSVDKTPCDIQALIADTIELLHFRMQKQNVAIVTSVEGEIRPLLADSVGVQQVLVNVINNAIDACALFQEKYHSSGYQGKIALHCDYQANQLSIRILDNGTGLQQENPTQAFVSSKAEGLGLGLAICRDVMEMHGGEFLIASTTPHGCLVELVFPYQN”, “not soluble”; under “GLGGFTRTRNKGKSNVIDMIQKYIESKGMPIENWDITVGYCTNLEEAEKYRDDVEAQLGVKLLERREDFKTRISIISGCHTGPYALGIACIPKYTTIRL”, “not soluble”. Under “GLIDAHGHVIGYGHSLLRVDLVNATSELDAVNRTISYAKDNPSMSWILGRGWNQVQWSNNSYPNAKSLDEAFPNKPVWLRRVDGHAGWANSKAMALAGITSASKAPVGGDIIKDKNGLPTGIFIDNAMTLITASITPPSPMEDKIALKRAMHSLASLGLTSVHDAGIEQKDIALYKTLASEGNMTIRINGMLYLPSTNWQQQLEQGPYRTEDEMFAVNSVKIQADGALGSRGASLINDYSDHSGHKGLLLHDKKSLQHYIDFAMNAGFQVNTHAIGDNANKLILDLYQQAIQKSQTKALRHRIEHAQVLRLEDISRFSSLNVIASMQATHATSDKNMAVTRLGGKRILGAYAWRKLLDSNTIIAAGSDFPVESPNPFFGLHASITRQDHKDLPIGGWYADQKMTRTEALRSFTIDAAYAGHQEKLIGSLEAGKKADFILLADDLLTMPESTIWQSQVSQTWVAGKKVFSAIDVPSVE” stands “not soluble”; under “GMAEEKKKKLSIIVFSGTIDKLMPVGILTSGAAASGYEVNLFFTFWGLQAITKRSLNSQQPPQIDKNYEQMGPIMMQKMQEMKYPMWHQLVQQAKEIGEVKVFACSTTMEFFGIKREDLAEFVDDVVGVATFLDRAEGGTTLFI”, “soluble”.

Take “GMDNSEEKKLEALGAFEISRKMLALAQKNEKSNIFLNAGRGNPNWIQTLARLAFVRLVQFGVTESKLTINNGIMAGYINTDGIRERLFAFLDPDKNDEDKFLIDAVNYCHTELGLNRDKVVAEWVNGAVANNYPVPDRCLVNTEKIINYFLQELSYKDANLAEQTDLFPTEGGTAAIVYAFHSLAENHLLKKGDKIAINEPIFTPYLRIPELKDYELVEVDLHSYEKNDWEIEPNEIEKLKDPSIKALIVVNPTNPTSKEFDTNALNAIKQAVEKNPKLMIISDEVYGAFVPNFKSIYSVVPYNTMLVYSYSKLFGCTGWRLGVIALNEKNVFDDNIAHLDKVELRQLHKRYSSVVLDPDKMKFIDRLCADSRSIGLYHTAGLSTPQQIMEALFSMTHLLTSTNGGSDDPYIDIARKLVSERYDQLHDAMQAPKDETDTNTHYYSLIDIYRLAEKIYGKEFRDYLTNNFEQVDFLLKLAEKNGVVLVDGVGFGAKPGELRVSQANLPTEDYALIGKQVLELLKEYYEEFKQNN”: the “soluble on expression in E. coli” value is recorded as “soluble”. In the case of “GMECRPLCIDDLELVCRHREAMFREAGRDALTLAAMQDPFRDWLLPRLADGSYFGWVMEEGGAPLAGIGLMVIEWPPHPSHPLQDKRGYILNLYVDPSHRERGIGQALMNRAEAEFAERGIAFAVLHATEMGQPLYARMGWSPTTEMSKPIAG” it was “soluble”. In the case of “GMEFLMKISHLDHLVLTVADIPTTTKFYEKVLGMKAVSFGSGRIALEFGHQKINLHQLGHEFEPKAQNVRTGSADLCFITDIDLSDAMEYVENQGVVIMEGPVKRTGAQGAITSFYFRDPDGNLIEVSTYSNT” it was “soluble”; in that of “GMENELEDKILAILEQHQVGVLTSVQGDFPHARYMTFLHDGLTLYTPSGKELPKTEEVRRNPHVCVLIGYDSPGSAFLEINGLASLEEDESIKERIWENISKDWFQGEDSPSFVVIKIVPEQIRILNS”, “soluble”. Under “GMHSALQLRSRIKSSGELELSLDSIDTPHPGPDEVLIRIEASPLNPSDLGLLFGAADMSTAKASGTAERPIVTARVPEGAMRSMAGRLDASMPVGNEGAGVVVEAGSSPAAQALMGKTVAAIGGAMYSQYRCIPADQCLVLPEGATPADGASSFVNPLTALGMVETMRLEGHSALVHTAAASNLGQMLNQICLKDGIKLVNIVRKQEQADLLKAQGAVHVCNAASPTFMQDLTEALVSTGATIAFDATGGGKLGGQILTCMEAALNKSAREYSRYGSTTHKQVYLYGGLDTSPTEFNRNFGMAWGMGGWLLFPFLQKIGRERANALKQRVVAELKTTFASHYSKEISLAEVLDLDMIAVYNKRATGEKYLINPNKGLAG” stands “soluble”; under “GMKIEHVALWTTNLEQMKQFYVTYFGATANDLYENKTKGFNSYFLSFEDGARLEIMSRTDVTGKTTGENLGWAHIAISTGTKEAVDELTEKLRQDGFAIAGEPRMTGDGYYESVVLDPEGNRIEITW”, “soluble”; under “GMLKSKIKEEYVQMDQVDWKPFPAAFSTGGIRWKLLHVSPEMGSWTAIFDCPAGSSFAAHVHVGPGEYFLTKGKMDVRGGKAAGGDTAIAPGYGYESANARHDKTEFPVASEFYMSFLGPLTFVKPDGSPIAVIGWEDAQGAWAA”, “soluble”.

(Values after the DeepSol protein solubility set.)
